Assay results published in patent publication US20160030526A1.

Columns and labels:
[1] = molecular target: human CD25 (human IL-2 receptor) on human CD25+ T-cell lymphoma cells HUT 102/6TG (human) (UniProt P01589); experiment: cell-based or functional assay
[2] = molecular target: human CD25 (human IL-2 receptor) on human CD25+ T-cell lymphoma cells HUT 102/6TG (human) (UniProt P01589)
[3] = molecular target: human CD25 (human IL-2 receptor) on human CD25+ T-cell lymphoma cells HUT 102/6TG (human) (UniProt P01589); experiment: flow cytometry on HUT 102/6TG cells

Chain of human CD25 (human IL-2 receptor) on human CD25+ T-cell lymphoma cells HUT 102/6TG (human) (P01589 22-272): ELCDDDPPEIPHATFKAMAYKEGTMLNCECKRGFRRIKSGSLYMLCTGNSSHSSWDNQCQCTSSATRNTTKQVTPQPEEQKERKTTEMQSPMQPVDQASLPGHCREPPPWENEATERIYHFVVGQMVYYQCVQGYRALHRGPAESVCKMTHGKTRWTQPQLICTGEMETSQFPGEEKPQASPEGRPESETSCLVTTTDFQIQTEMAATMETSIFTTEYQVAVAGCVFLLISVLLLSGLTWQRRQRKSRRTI

Substance | IC50 of protein synthesis inhibition (3H-leucine) in HUT 102/6TG cells [1] [nM] | Kd [2] [nM] | affinity against the monovalent isoform (DT390-hIL-2) [3] [logs]
bivalent human IL-2 fusion toxin (DT390-bi-hIL-2-6xHis) | 0.0002 | – | –
monovalent human IL-2 fusion toxin (DT390-hIL-2-6xHis) | 0.02 | – | –
monovalent human IL-2 fusion toxin (DT390-hIL-2-6xHis) (other; other documents disagree on this pair) | – | 15.9 | –
bivalent human IL-2 fusion toxin (DT390-bi-hIL-2-6xHis) (other; other documents disagree on this pair) | – | 0.21 | 2
